Experimental data from US20160185859A1 (Pfizer, published 2016).
Each block holds one binder with its values, some of them ahead of it.

Key:
human 5T4 antigen [1] = molecular target: T1, human 5T4 antigen (human, UniProt Q13641 32-355, limits assumed); test: BIACORE (SPR); human 5T4 antigen immobilized on CM5 chip
T1 sequence: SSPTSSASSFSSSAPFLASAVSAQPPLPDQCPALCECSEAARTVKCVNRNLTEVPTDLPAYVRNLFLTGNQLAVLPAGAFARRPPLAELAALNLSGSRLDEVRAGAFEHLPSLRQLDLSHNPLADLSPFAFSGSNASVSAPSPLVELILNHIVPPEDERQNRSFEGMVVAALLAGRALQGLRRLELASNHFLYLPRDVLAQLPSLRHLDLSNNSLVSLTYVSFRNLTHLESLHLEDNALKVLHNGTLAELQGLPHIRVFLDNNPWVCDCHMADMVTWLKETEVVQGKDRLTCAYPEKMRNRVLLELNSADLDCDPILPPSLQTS
Method: To assess the binding specificity and affinity of the A1, A2, and A3 antibodies, BIACORE® analysis was performed using human 5T4 antigen immobilized on a CM5 chip. BIACORE® technology utilizes changes in the refractive index at the surface layer upon binding of the antibody to the 5T4 antigen immobilized on the layer. Binding is detected by surface plasmon resonance (SPR) of laser light refracting from the surface. Analysis of the signal kinetics on rate and off rate allows discrimination between non-specific and specific interactions. The H8 anti-5T4 antibody was used as a control. H8 is a hybridoma-generated monoclonal mouse IgG1 antibody described in PCT International Publication No. WO 98/55607 and in Forsberg et al. (1997) J. Biol. Chem. 272(19):[…].
To assess the binding specificity and affinity of the chimeric and humanized H8, A1, A2, and A3 antibodies, BIACORE® analysis was performed using human 5T4 antigen immobilized on a CM5 chip. See Example 2.

[2] = molecular target: chimpanzee 5T4 ectodomain Fc (chimpanzee; human, UniProt P01857 99-330 = IgG part); test: ELISA; 5T4 ectodomain/Fc fusion protein from transiently transfected COS-1 cells; given as ED50
Method: (§1) To assay binding of anti-5T4 antibodies, 5T4 ectodomain/Fc fusion proteins were transiently transfected into COS-1 cells, and ELISA assays were performed. Non-relevant human IgG4 and IgG1 antibodies were used as controls.

human 5T4 ectodomain Fc = molecular target: T2, human 5T4 ectodomain Fc (human, UniProt Q13641 32-355); test: as above
T2 construct: also called human 5T4 ectodomain Fc fusion protein; Human 5T4 Ectodomain/Fc Fusion; not shown: Fc constant regions from human IgG1
T2 sequence: T1 sequence
Method: as §1

[3] = molecular target: T3, cynomologous monkey 5T4 ectodomain Fc (cynomologous monkey; human, UniProt Q4R8Y9 32-355); test: as above
T3 construct: not shown: Fc constant regions from human IgG1
T3 chain: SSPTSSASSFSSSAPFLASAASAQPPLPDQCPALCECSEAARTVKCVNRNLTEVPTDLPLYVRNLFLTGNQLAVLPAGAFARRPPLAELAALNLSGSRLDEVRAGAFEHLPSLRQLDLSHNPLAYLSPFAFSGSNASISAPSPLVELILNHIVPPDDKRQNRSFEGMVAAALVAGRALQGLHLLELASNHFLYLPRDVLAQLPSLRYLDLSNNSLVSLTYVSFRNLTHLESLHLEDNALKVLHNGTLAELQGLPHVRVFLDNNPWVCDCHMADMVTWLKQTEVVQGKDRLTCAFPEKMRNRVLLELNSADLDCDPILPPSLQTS
Method: as §1

[4] = molecular target: T4, black-tailed marmoset 5T4 ectodomain Fc (black-tailed marmoset; human, UniProt Q13641 32-355); test: as above
T4 construct: not shown: Fc constant regions from human IgG1
T4 chain: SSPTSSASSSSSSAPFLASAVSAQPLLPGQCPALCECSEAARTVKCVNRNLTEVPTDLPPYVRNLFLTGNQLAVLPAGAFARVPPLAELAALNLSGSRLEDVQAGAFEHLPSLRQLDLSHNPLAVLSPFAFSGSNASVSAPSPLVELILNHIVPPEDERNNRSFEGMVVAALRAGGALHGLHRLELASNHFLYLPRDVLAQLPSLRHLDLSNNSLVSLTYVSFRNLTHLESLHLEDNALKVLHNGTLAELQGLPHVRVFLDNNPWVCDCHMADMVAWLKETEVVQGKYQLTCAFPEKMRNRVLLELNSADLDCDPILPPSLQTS
Method: as §1

human 5T4 antigen [5] = molecular target: T1, human 5T4 antigen; test: BIACORE; human 5T4 chip saturated with first antibody humanized H8 (competitor); 75 s after injection of second antibody
human 5T4 antigen [6] = molecular target: T1, human 5T4 antigen; test: BIACORE; human 5T4 chip saturated with first antibody humanized H8 (competitor); 600 s after injection of second antibody
human 5T4 antigen [7] = molecular target: T1, human 5T4 antigen; test: BIACORE; human 5T4 chip saturated with first antibody humanized H8 (competitor); 19 s after injection of second antibody
human 5T4 antigen [8] = molecular target: T1, human 5T4 antigen; test: BIACORE; human 5T4 chip saturated with first antibody humanized H8 (competitor); 150 s after injection of second antibody
human 5T4 antigen [9] = molecular target: T1, human 5T4 antigen; test: ELISA; inhibition of biotinylated chimeric A1 antibody binding to human 5T4
human 5T4 antigen [10] = molecular target: T1, human 5T4 antigen; test: BIACORE; human 5T4 chip saturated with first antibody humanized H8 (competitor); 300 s after injection of second antibody
human 5T4 antigen [11] = molecular target: T1, human 5T4 antigen; test: BIACORE; human 5T4 chip saturated with first antibody humanized H8 (competitor); 37.5 s after injection of second antibody
[12] = molecular target: T5, human 5T4 antigen expressed on cells (PC14PE6 cells; MDAMB435/5T4 cells) (human, UniProt Q13641 32-420); test: cell-based or functional assay
T5 sequence: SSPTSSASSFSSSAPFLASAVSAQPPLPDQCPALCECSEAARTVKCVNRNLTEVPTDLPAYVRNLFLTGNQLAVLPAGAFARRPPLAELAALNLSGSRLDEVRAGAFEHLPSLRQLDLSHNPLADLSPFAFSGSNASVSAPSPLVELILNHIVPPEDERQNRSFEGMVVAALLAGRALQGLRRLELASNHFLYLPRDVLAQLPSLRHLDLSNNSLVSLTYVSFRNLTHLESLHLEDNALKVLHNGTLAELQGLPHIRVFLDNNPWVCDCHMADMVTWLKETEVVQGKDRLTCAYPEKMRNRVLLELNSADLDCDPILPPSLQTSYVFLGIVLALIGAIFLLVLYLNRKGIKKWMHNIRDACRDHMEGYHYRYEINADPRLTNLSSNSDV

- Ka (human 5T4 antigen [1]): 2.3e+09 M⁻¹
- Kd (human 5T4 antigen [1]): 440 pM
- koff (human 5T4 antigen [1]): 6.7e-05 s⁻¹
- kon (human 5T4 antigen [1]): 150000 M⁻¹ s⁻¹
- EC50 [2]: 270 pM
- EC50 (human 5T4 ectodomain Fc): 280 pM
- EC50 [3]: 180 pM
- EC50 [4]: 240 pM
- percentage of second antibody bound following saturation with first antibody (human 5T4 antigen [5]): 93.8%
- percentage of second antibody bound following saturation with first antibody (human 5T4 antigen [6]): 98.7%
- percentage of second antibody bound following saturation with first antibody (human 5T4 antigen [7]): 92.7%
- percentage of second antibody bound following saturation with first antibody (human 5T4 antigen [8]): 95.8%
- IC50 (human 5T4 antigen [9]): 16000 to 20000 pM
- percentage of second antibody bound following saturation with first antibody (human 5T4 antigen [10]): 97.3%
- percentage of second antibody bound following saturation with first antibody (human 5T4 antigen [11]): 92.4%
B1: chimeric A1 antibody (antibody, V domains shown)
VH: QIQLVQSGPELKKPGETVKISCKASGYTFTNFGMNWVKQGPGEGLKWMGWINTNTGEPRYAEEFKGRCAFSLETTASTAYLQINNLKNEDTATYFCARDWDGAYFFDYWGQGTTLTVSS
VL: SIVMTQTPKFLLVSAGDRVTITCKASQSVSNDVAWYQQKPGQSPKLLINFATNRYTGVPNRFTGSGYGTDFTFTISTVQAEDLALYFCQQDYSSPWTFGGGTKLEIK
modifications: Biotinylated when used as the labelled competitor in Table 13; the site is not stated.
notes: also called ChiA1; ChiA1 γ4

- Fold CalichDMH, MTS assay, MDAMB435/5T4 cells [12]: 0.13 fold
B2: A2-AcBut-CalichDMH, A2 antibody conjugated to calicheamicin using 4-(4'-acetylphenoxy)butanoic acid (AcBut) (other)
VH: QVQLQQSRPELVKPGASVKMSCKASGYTFTDYVISWVKQRTGQGLEWIGEIYPGSNSIYYNEKFKGRATLTADKSSSTAYMQLSSLTSEDSAVYFCAMGGNYGFDYWGQGTTLTVSS
VL: QIVLTQSPAIMSASLGERVTLTCTASSSVNSNYLHWYQQKPGSSPKLWIYSTSNLASGVPARFSGSGSGTSYSLTISSMEAEDAATYYCHQYHRSPLTFGAGTKLELK
modifications: calicheamicin (CalichDMH) conjugated to the antibody through the AcBut linker; residues carrying it not stated

- Ka (human 5T4 antigen [1]): 5.7e+08 M⁻¹
- Kd (human 5T4 antigen [1]): 1800 pM
- koff (human 5T4 antigen [1]): 0.00025 s⁻¹
- kon (human 5T4 antigen [1]): 140000 M⁻¹ s⁻¹
- EC50 [2]: 220 pM
- EC50 (human 5T4 ectodomain Fc): 210 pM
- EC50 [3]: 180 pM
- EC50 [4]: 220 pM
- percentage of second antibody bound following saturation with first antibody (human 5T4 antigen [5]): 86.9%
- percentage of second antibody bound following saturation with first antibody (human 5T4 antigen [6]): 96.7%
- percentage of second antibody bound following saturation with first antibody (human 5T4 antigen [7]): 86.9%
- percentage of second antibody bound following saturation with first antibody (human 5T4 antigen [8]): 90.5%
- percentage of second antibody bound following saturation with first antibody (human 5T4 antigen [10]): 93.7%
- percentage of second antibody bound following saturation with first antibody (human 5T4 antigen [11]): 84.7%
B3: chimeric A2 antibody (antibody, human IgG4, V domains shown)
VH: B2 VH
VL: B2 VL
notes: also called ChiA2; ChiA2 γ4
